Results on one molecule are retold here after publication PMC10761746 (Scientific Reports, 2024).

In the assay the target is T1, His6-RpoA (purified) (UniProt P0A7Z7 1-329).
T1 construct: also called RNA polymerase alpha subunit
Description: pull-down. The note with it: both partners purified.

T1 sequence (P0A7Z7 whole entry): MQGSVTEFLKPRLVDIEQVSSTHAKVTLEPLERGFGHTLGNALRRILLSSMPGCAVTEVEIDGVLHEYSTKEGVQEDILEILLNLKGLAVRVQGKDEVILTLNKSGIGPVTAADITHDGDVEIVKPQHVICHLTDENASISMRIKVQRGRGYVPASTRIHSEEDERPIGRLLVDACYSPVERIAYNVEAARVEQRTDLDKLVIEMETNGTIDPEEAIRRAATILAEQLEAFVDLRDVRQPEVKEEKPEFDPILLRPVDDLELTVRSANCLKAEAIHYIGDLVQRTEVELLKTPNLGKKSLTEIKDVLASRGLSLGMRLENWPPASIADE

B1: MBP-InvF (InvF fused to the maltose-binding protein) (natural protein)
chain: MSFSESRHNENCLIQEGALLFCEQAVVAPVSGDLVFRPLKIEVLSKLLAFIDGAGLVDTTYAESDKWVLLSPEFRAIWQDRKRCEYWFLQQIITPSPAFNKVLALLRKSESYWLVGYLLAQSTSGNTMRMLGEDYGVSYTHFRRLCSRALGGKAKSELRNWRMAQSLLNSVEGHENITQLAVNHGYSSPSHFSSEIKELIGVSPRKLSNIIQLADK
notes: also called Transcriptional regulator InvF
With B1, the binding result is given as “binds”.
